Experimental data published in PMC11156904, “Nucleic acid mediated activation of a short prokaryotic Argonaute immune system”.
Several values for one entry are separate records, joined by “and”; a condition that tells them apart may be missing. Equal values may be shown once.

T1: CrtSPARTA TIR-APAZ;CrtSPARTA short pAgo (CrtAgo) (Crenotalea thermophila;Crenotalea …, UniProt A0A1I7NFG5;A0A1I7NFD7 1-450;1-507, |)
T1 sequence 1: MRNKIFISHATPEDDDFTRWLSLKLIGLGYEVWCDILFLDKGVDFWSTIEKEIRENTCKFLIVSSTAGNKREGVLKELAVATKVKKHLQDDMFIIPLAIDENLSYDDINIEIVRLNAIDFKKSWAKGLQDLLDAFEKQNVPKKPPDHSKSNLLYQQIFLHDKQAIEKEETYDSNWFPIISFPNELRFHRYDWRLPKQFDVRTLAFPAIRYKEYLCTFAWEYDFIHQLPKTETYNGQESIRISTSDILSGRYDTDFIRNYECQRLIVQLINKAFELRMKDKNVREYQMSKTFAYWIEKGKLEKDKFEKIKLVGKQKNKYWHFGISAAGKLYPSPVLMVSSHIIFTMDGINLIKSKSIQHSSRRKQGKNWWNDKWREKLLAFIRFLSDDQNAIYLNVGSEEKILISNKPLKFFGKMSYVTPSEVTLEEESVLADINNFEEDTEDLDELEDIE
T1 sequence 2: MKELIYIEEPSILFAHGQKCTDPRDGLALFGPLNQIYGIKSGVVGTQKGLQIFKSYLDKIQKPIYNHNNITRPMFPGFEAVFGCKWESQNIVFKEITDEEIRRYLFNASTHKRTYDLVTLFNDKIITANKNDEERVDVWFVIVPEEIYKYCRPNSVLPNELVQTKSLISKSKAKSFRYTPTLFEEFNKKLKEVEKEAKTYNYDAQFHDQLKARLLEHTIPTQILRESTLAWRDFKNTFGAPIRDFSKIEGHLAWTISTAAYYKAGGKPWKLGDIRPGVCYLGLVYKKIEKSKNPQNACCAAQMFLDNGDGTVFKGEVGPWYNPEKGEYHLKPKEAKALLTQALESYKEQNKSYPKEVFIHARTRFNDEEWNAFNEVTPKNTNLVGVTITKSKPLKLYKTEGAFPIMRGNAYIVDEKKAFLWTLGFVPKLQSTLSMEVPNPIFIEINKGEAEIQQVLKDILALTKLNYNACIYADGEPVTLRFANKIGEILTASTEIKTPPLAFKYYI

T2: CrtSPARTA TIR-APAZ;CrtSPARTA short pAgo loop10-9 deletion (Crenotalea thermophila;Crenotalea …, UniProt A0A1I7NFG5;A0A1I7NFD7 1-450;1-507, |del322-327)
T2 sequence 1: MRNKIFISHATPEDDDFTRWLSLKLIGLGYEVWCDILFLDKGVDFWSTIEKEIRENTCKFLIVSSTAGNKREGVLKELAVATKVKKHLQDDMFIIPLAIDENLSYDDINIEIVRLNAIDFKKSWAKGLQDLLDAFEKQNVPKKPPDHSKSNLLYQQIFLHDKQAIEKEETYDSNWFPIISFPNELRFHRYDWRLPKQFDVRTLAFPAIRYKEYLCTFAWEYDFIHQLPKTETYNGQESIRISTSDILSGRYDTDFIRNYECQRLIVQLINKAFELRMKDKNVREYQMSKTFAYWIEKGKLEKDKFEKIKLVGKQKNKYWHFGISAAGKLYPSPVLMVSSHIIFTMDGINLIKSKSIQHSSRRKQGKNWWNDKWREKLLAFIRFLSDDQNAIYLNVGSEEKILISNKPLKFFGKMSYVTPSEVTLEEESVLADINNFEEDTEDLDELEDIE
T2 sequence 2: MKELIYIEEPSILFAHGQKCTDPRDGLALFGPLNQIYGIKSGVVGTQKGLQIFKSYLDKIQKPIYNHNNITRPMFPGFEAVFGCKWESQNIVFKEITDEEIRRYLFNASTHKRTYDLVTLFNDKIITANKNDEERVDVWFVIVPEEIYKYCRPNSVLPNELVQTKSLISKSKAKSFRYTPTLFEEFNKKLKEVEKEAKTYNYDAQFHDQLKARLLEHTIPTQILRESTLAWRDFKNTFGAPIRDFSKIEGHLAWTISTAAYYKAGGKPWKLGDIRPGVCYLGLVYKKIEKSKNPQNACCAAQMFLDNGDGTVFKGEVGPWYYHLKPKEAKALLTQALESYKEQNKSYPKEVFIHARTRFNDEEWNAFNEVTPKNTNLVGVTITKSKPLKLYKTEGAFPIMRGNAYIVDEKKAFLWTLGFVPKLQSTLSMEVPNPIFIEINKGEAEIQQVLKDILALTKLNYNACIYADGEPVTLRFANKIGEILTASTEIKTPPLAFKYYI


Tests used:
[1] = biological target: SPARTA heterodimer (TIR-APAZ/short pAgo complex) from Crenotalea thermophila (Crenotalea thermophila); experiment: cryo-EM structure; SPARTA oligomer bound to gRNA/tDNA, nominal 3.15-3.35 Å
[2] = biological target: SPARTA heterodimer (TIR-APAZ/short pAgo complex) from Crenotalea thermophila (Crenotalea thermophila); experiment: mass photometry; CrtSPARTA incubated with gRNA/tDNA (5 mM MgCl2, 55 °C, 12 hours), 100-fold diluted, in 20 mM HEPES pH 7.5, 100 mM KCl, 2 mM DTT
[3] = biological target: T1, CrtSPARTA TIR-APAZ;CrtSPARTA short pAgo …; experiment: cryo-EM structure; 5 mM MgCl2; Mg2+ seen in MID pocket; 4 heterodimers, one duplex each; 20 mM HEPES pH 7.5, 100 mM KCl, 1 mM DTT, 5 mM MgCl2; 1.5 mg/ml SPARTA, 16 uM gRNA 37 C 1 h, then 16 uM tDNA 55 C 12 h; conditions: protein: recombinant;recombinant; tags: 6xHis-MBP removed by TEV;none stated on this chain; copies: 1;1; 21 bp; tDNA 5' overhang 23 nt and 3' overhang 1 nt; guide loaded first, then target
[4] = biological target: T2, CrtSPARTA TIR-APAZ;CrtSPARTA short pAgo …; experiment: mass photometry; binds as single heterodimer (~134.6 kDa, expected 132.6); loses dimer formation; 20 mM HEPES pH 7.5, 100 mM KCl, 1 mM DTT, 5 mM MgCl2; 1.5 mg/ml SPARTA, 16 uM gRNA 37 C 1 h, then 16 uM tDNA 55 C 12 h; conditions: protein: recombinant;recombinant; tags: 6xHis-MBP removed by TEV;none stated on this chain; copies: 1;1; 21 bp; tDNA 5' overhang 23 nt and 3' overhang 1 nt; guide loaded first, then target

Row | Molecule | stoichiometry N [1] | stoichiometry N [2] | binding result [3] | binding result [4]
1 | SPARTA heterodimer (TIR-APAZ/short pAgo complex) from Crenotalea thermophila | 4 | 2 and 4 |  | 
2 | gRNA/tDNA duplex (DNA:RNA, 5'-phosphate on guide RNA) RNA: UGAGGUAGUAGGUUGUAUAGU DNA: AAACGACGGCCAGTGCCAAGCTTACTATACAACCTACTACCTCAT |  |  | binds | binds
